In the supplement of paper PMC9112550, “Optimization of the antimicrobial peptide Bac7 by deep mutational scanning” (BMC Biology, 2022):

Test system: Escherichia coli TOP10
Assay: shrunken log2 fold change of peptide-encoding DNA abundance (4.5 h post-induction vs induction); higher = less antimicrobial activity (less host growth inhibition)
Conditions: time post-induction: 4.5 h; library: site-saturation at positions 5, 18, 19, 20
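Further: peptides expressed intracellularly from a pBAD plasmid library in pooled LB shake-flask culture, induced with 0.3% L-arabinose, DNA abundance read by NGS, three biological replicates, DESeq2 with apeglm shrinkage.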

Sequence | shrunken log2 fold change
RRIRARPPRLPRPRPRPAASPRP | 0.928
RRIRARPPRLPRPRPRPACKPRP | 0.558
RRIRARPPRLPRPRPRPACLPRP | 0.347
RRIRARPPRLPRPRPRPACMPRP | 0.313
RRIRARPPRLPRPRPRPACNPRP | 0.089
RRIRARPPRLPRPRPRPACQPRP | 0.486
RRIRARPPRLPRPRPRPADVPRP | 0.118
RRIRARPPRLPRPRPRPAEFPRP | 0.304
RRIRARPPRLPRPRPRPAEYPRP | -0.0257
RRIRARPPRLPRPRPRPAFMPRP | 0.525
RRIRARPPRLPRPRPRPAGGPRP | 0.678
RRIRARPPRLPRPRPRPAHAPRP | 1.07
RRIRARPPRLPRPRPRPAIEPRP | 0.396
RRIRARPPRLPRPRPRPAIGPRP | 0.714
RRIRARPPRLPRPRPRPAIQPRP | 0.228
RRIRARPPRLPRPRPRPAKAPRP | 0.332
RRIRARPPRLPRPRPRPAKPPRP | 0.127
RRIRARPPRLPRPRPRPALRPRP | 0.363
RRIRARPPRLPRPRPRPALTPRP | 0.642
RRIRARPPRLPRPRPRPALWPRP | 0.833
RRIRARPPRLPRPRPRPAQNPRP | 0.333
RRIRARPPRLPRPRPRPARQPRP | 0.766
RRIRARPPRLPRPRPRPATMPRP | 0.413
RRIRARPPRLPRPRPRPATQPRP | 0.437
RRIRARPPRLPRPRPRPAVGPRP | 0.512
RRIRARPPRLPRPRPRPCAFPRP | 0.303
RRIRARPPRLPRPRPRPCCMPRP | -0.0671

Sequence | shrunken log2 fold change
RRIRARPPRLPRPRPRPCDAPRP | 0.344
RRIRARPPRLPRPRPRPCEAPRP | 0.762
RRIRARPPRLPRPRPRPCFKPRP | 0.0174
RRIRARPPRLPRPRPRPCFQPRP | 0.105
RRIRARPPRLPRPRPRPCGGPRP | 0.425
RRIRARPPRLPRPRPRPCGRPRP | 0.526
RRIRARPPRLPRPRPRPCHQPRP | -0.34
RRIRARPPRLPRPRPRPCICPRP | -0.0352
RRIRARPPRLPRPRPRPCKNPRP | 0.138
RRIRARPPRLPRPRPRPCKSPRP | 0.0355
RRIRARPPRLPRPRPRPCLKPRP | -0.0264
RRIRARPPRLPRPRPRPCLVPRP | 0.0528
RRIRARPPRLPRPRPRPCQVPRP | -0.47
RRIRARPPRLPRPRPRPCRGPRP | -0.1
RRIRARPPRLPRPRPRPCRLPRP | -0.0461
RRIRARPPRLPRPRPRPCTAPRP | -0.147
RRIRARPPRLPRPRPRPCTNPRP | 0.109
RRIRARPPRLPRPRPRPCTYPRP | -0.173
RRIRARPPRLPRPRPRPCVDPRP | 0.581
RRIRARPPRLPRPRPRPCWGPRP | 0.205
RRIRARPPRLPRPRPRPCWNPRP | -0.0387
RRIRARPPRLPRPRPRPDAQPRP | 1.35
RRIRARPPRLPRPRPRPDCCPRP | 0.172
RRIRARPPRLPRPRPRPDCMPRP | 0.386
RRIRARPPRLPRPRPRPDDIPRP | 0.0386
RRIRARPPRLPRPRPRPDDYPRP | -0.0457
RRIRARPPRLPRPRPRPDELPRP | 0.63
